{"source": "patent US20220378932A1", "about": "(published 2022)", "binders": {"B1": {"name": "chimeric HIRMAb (Examples 3 and 4) (antibody, human IgG1, kappa)", "heavy": "not shown", "light": "DIQMTQSPSSLSASLGERVSLTCRASQDIGGNLYWLQQGPDGTIKRLIYATSSLDSGVPKRFSGSRSGSDYSLTISSLESEDFVDYYCLQYSSSPWTFGGATKMEIKRTVAAPSVFIFPPSDEQLKSGTASVVCLLNNFYPREAKVQWKVDNALQSGNSQESVTEQDSKDSTYSLSSTLTLSKADYEKHKVYACEVTHQGLSSPVTKSFNRGEC", "notes": "also called chimeric form of the HIRMAb; product of clone 400"}, "B2": {"name": "chimeric HIRMAb (Examples 15 and 16) (antibody, human IgG1, kappa, V domains shown)", "VH": "QVQLQQSGPELVKPGALVKISCKASGYTFTNYDIHWVKQRPGQGLEWIGWIYPGDGSTKYNEKFKGKATLTADKSSSTAYMHLSSLTSEKSAVYFCAREWAYWGQGTLVTVSA", "VL": "DIQMTQSPSSLSASLGERVSLTCRASQDIGGNLYWLQQGPDGTIKRLIYATSSLDSGVPKRFSGSRSGSDYSLTISSLESEDFVDYYCLQYSSSPWTFGGGTKMEIKR", "notes": "also called COS cell-derived chimeric HIRMAb; CHO-derived HIRMAb"}, "B3": {"name": "recombinant human GDNF (ligand)", "chain": "SPDKQMAVLPRRERNRQAAAANPENSRGKGRRGQRGKNRGCVLTAIHLNVTDLGLGYETKEELIFRYCSGSCDAAETTYDKILKNLSRNRRLVSDKVGQACCRPIAFDDDLSFLDDNLVYHILRKHSAKRCGCI", "notes": "Bought (Peprotech); also called recombinant GDNF"}}, "key": {"[1]": {"target": "T1, human insulin receptor extracellular domain (HIR ECD) (human, UniProt P06213 28-956, limits assumed)", "T1 construct": "extracellular domain", "assay": "competitive ligand binding assay: displacement of [125I] murine HIRMAb from plated HIR ECD; Scatchard analysis, high affinity site, nonlinear regression"}, "[2]": {"target": "T2, Fc fusion of the human GFRα1 extracellular domain (GFRα1:Fc fusion protein) (human, UniProt P56159 25-429, limits assumed)", "T2 construct": "extracellular domain; Bought (R&D Systems), captured on plates by a mouse anti-human IgG; also called GFRα1 ECD; GFRal; not shown: Fc part of the bought fusion, captured by a mouse anti-human Fc antibody", "T2 sequence (looked up)": "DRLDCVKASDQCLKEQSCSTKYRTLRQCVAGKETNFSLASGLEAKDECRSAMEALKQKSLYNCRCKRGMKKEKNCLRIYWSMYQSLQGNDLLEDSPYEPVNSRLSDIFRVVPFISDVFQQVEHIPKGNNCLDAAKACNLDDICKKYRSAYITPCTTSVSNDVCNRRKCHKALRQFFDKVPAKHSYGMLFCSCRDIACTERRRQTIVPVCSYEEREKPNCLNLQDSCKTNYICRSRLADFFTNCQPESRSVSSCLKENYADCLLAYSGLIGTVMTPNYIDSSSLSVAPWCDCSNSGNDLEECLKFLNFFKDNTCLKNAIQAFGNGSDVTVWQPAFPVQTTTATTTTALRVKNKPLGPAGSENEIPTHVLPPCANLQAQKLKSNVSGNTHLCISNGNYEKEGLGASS", "assay": "ELISA on GFRα1:Fc captured by mouse anti-human Fc antibody, detection with goat anti-GDNF antibody"}, "[3]": {"target": "T1, human insulin receptor extracellular …", "assay": "ELISA on plated HIR ECD, COS cell-derived protein, detection with biotinylated goat anti-human IgG; non-linear regression"}, "[4]": {"target": "T2, Fc fusion of the human GFRα1 …", "assay": "ELISA on captured GFRα1:Fc (format of FIG. 33), run with the CHO-derived fusion protein"}, "[5]": {"target": "T2, Fc fusion of the human GFRα1 …", "assay": "ELISA on GFRα1:Fc captured by mouse anti-human IgG, detection with goat anti-GDNF antibody"}}}
{"binder": "B1", "values": [{"measurement": "Ki", "setting": "[1]", "result": 0.63, "unit": "nM"}]}
{"binder": "B2", "values": [{"measurement": "binding result", "setting": "[2]", "result": "no binding"}, {"measurement": "EC50", "setting": "[3]", "result": 0.5, "unit": "nM"}]}
{"binder": "B3", "values": [{"measurement": "EC50", "setting": "[4]", "result": 1, "unit": "nM"}, {"measurement": "EC50", "setting": "[5]", "result": 1.03, "unit": "nM"}]}
